The assay deals with MBECs (cultured cells). Briefly: equilibrium titration on cultured MBECs; apparent affinity.

The source of these data is patent US20220204583A1 (published 2022).

B1: VLR-Fc-46 (Fc fusion)
chain: ACPSQCSCSGTTVDCSGKSLASVPTGIPTTTRWLHLHRNQLTKLEPGVFDSLTQLTYLNLGGNQLTALPVGVFDKLTNLKELKLYSNQLQALSEGLFDRLGKLQHLDLSKNQLKSIPHGAFDRLSSLTHAYLFGNPWDCECRDIMYLRNWVADHTSIVMRWDGKAVNDPDSAKCAGTNTPVRAVTEASTSPSKCPGYVAT
Consider B1, for which the Kd is 68.2 nM.

B2: VLR-Fc-30 (Fc fusion)
chain: ACPSQCSCSGTTVDCSGKSLASVPTGIPTTTQILRLYRNQITKLEPGVFDSLTQLTYLNLGGNQLTALPVGVFDKLTNLKELKLYSNQLQALSEGLFDRLGKLQHLDLSKNQLKSIPHGAFDRLSSLTHAYLFGNPWDCECRDIMYLRNWVADHTSIVMRWDGKAVNDPDSAKCAGTNTPVRAVTEASTSPSKCPGYVAT
In the case of B2, the Kd amounted to 5.4 nM.

B3: VLR-Fc-11 (Fc fusion)
chain: ACPSQCSCSGTEVRCESRSLASVPAGIPTTTRRLHLHRNQLTKLEPGVFDSLTQLTYLNLGGNQLTALPVGVFDKLTNLKELKLYSNQLQALSEGLFDRLGKLQHLDLSKNQLKSIPHGAFDRLSSLTHAYLFGNPWDCECRDIMYLRNWVADHTSIVMRWDGKAVNDPDSAKCAGTNTPVRAVTEASTSPSKCPGYVAT
Consider B3, for which the Kd is 10.4 nM.
